Measured values from patent publication US9915665.

B1: h1A11.1-A10-S3-SS-Anti-VEGF DVD-Ig (bispecific antibody, part only; not given: anti-VEGF domains, h1A11.1 VL, constant regions, part only)
heavy, part: EVQLVESGGGLVQPGGSLRLSCAASGFTFRHFPMAWVRQAPGKGLEWVASISSSDGTSNYRDSVKGRFTISRDNAKSSLYLQMNSLRAEDTAVYYCARGYYNSPFAYWGQGTLVTVSSASTKGP
light, part: TVAAP
B2: h1A11.1-A04-S3-SS-Anti-VEGF DVD-Ig (bispecific antibody, part only; not given: anti-VEGF domains, h1A11.1 VL, constant regions, part only)
heavy, part: EVQLVESGGGLVQPGGSLRLSCAASGFTFRHFPMAWVRQAPGKGLEWVATISSSDGATYYRDSVKGRFTISRDNAKSSLYLQMNSLRAEDTAVYYCARGYYNSPFAYWGQGTLVTVSSASTKGP
light, part: TVAAP
B3: h1A11.1-F7-S2-SS-Anti-VEGF DVD-Ig (bispecific antibody, part only; not given: anti-VEGF domains, h1A11.1 VL, constant regions, part only)
heavy, part: EVQLVESGGGLVQPGGSLRLSCAASGFTFRHFPMTWVRQAPGKGLEWVASISSSDGTINYRDSVKGRFTISRDNAKNSLYLQMNSLRAEDTAVYYCARGYYNSPFAYWGQGTLVTVSSASTKGP
light, part: TVAAP
B4: h1A11.1-B9-S2-SS-Anti-VEGF DVD-Ig (bispecific antibody, part only; not given: anti-VEGF domains, h1A11.1 VL, constant regions, part only)
heavy, part: EVQLVESGGGLVQPGGSLRLSCAASGFTFSHFPMAWVRQAPGKGLEWVASISSSDSTTNYRDSVKGRFTISRDNAKNSLYLQMNSLRAEDTAVYYCARGYYNSPFAYWGQGTLVTVSSASTKGP
light, part: TVAAP
B5: h1A11.1-H3-S2-SS-Anti-VEGF DVD-Ig (bispecific antibody, part only; not given: anti-VEGF domains, h1A11.1 VL, constant regions, part only)
heavy, part: EVQLVESGGGLVQPGGSLRLSCAASGFTFRNFPMAWVRQAPGKGLEWVASISSSDGTTNYRDSVKGRFTISRDNAKSSLYLQMNSLRAEDTAVYYCARGYYNSPFAYWGQGTLVTVSSASTKGP
light, part: TVAAP
B6: h1A11.1-G7-S2-SS-Anti-VEGF DVD-Ig (bispecific antibody, part only; not given: anti-VEGF domains, h1A11.1 VL, constant regions, part only)
heavy, part: EVQLVESGGGLVQPGGSLRLSCAASGFTFNHFPMAWVRQAPGKGLEWVATISSSDWTPYYRDSVKGRFTISRDNAKNSLYLQMNSLRAEDTAVYYCARGYYNSPFAYWGQGTLVTVSSASTKGP
light, part: TVAAP

How the values were obtained:
murine DLL4 (murine) [1] = target: murine DLL4 (murine) (UniProt Q9JI71); assay: Biacore (SPR), DVD-Ig and muDLL4
murine DLL4 (murine) [2] = target: murine DLL4 (murine) (UniProt Q9JI71); assay: Biacore (SPR), muDLL4; reference is the parental DVD
human DLL4 (human) [3] = target: human DLL4 (human) (UniProt Q9NR61); assay: Biacore (SPR), DVD-Ig and huDLL4
human DLL4 (human) [4] = target: human DLL4 (human) (UniProt Q9NR61); assay: Biacore (SPR), huDLL4; reference is the parental DVD

UniProt Q9NR61, sequence (Q9NR61 27-524 limits assumed): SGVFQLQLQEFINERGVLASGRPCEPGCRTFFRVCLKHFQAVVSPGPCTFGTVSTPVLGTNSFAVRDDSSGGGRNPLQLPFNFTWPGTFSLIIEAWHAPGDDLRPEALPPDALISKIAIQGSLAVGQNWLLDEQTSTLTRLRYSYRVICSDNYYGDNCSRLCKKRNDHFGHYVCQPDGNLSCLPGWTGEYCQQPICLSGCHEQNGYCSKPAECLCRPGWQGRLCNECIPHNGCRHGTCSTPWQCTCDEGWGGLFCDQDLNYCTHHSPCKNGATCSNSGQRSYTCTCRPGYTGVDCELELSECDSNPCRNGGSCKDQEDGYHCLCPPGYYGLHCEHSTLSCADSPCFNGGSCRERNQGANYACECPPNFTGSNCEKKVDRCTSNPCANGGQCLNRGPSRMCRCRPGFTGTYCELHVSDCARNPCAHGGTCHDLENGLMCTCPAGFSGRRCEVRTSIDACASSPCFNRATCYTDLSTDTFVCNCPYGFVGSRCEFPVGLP
UniProt Q9JI71, sequence (Q9JI71 27-525 limits assumed): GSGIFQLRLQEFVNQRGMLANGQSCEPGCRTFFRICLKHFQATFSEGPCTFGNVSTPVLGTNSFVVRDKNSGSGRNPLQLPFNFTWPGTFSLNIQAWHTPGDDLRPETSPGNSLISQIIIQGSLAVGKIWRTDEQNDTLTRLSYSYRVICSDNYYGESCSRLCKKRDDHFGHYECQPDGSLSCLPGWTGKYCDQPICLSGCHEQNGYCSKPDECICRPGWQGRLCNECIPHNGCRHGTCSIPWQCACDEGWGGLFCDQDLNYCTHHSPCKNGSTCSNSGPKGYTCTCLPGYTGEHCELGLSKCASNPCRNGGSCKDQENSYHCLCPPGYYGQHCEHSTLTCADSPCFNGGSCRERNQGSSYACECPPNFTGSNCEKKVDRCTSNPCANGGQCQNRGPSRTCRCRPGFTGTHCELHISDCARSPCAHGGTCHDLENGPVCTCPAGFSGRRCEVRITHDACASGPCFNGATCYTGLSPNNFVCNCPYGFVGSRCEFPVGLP

| Binder | Kd (murine DLL4 (murine) [1]) [nM] | koff (murine DLL4 (murine) [1]) [s⁻¹] | kon (murine DLL4 (murine) [1]) [M⁻¹ s⁻¹] | KD ratio (parental DVD/AM DVD) (murine DLL4 (murine) [2]) [fold] | Kd (human DLL4 (human) [3]) [nM] | koff (human DLL4 (human) [3]) [s⁻¹] | kon (human DLL4 (human) [3]) [M⁻¹ s⁻¹] | KD ratio (parental DVD/AM DVD) (human DLL4 (human) [4]) [fold] |
| --- | --- | --- | --- | --- | --- | --- | --- | --- |
| B1 | 0.774 | 0.000133 | 171000 | 53.8 |  |  |  |  |
| B2 | 0.451 | 8.12e-05 | 180000 | 92.2 |  |  |  |  |
| B3 | 0.361 | 0.000483 | 1.34e+06 | 59.2 | 0.556 | 0.000319 | 570000 | 35.9 |
| B4 | 1.23 | 0.000205 | 167000 | 17.4 | 0.923 | 0.000106 | 115000 | 21.6 |
| B5 | 1.49 | 0.000294 | 197000 | 14.3 | 1.04 | 0.000136 | 130000 | 19.1 |
| B6 | 1.57 | 0.000266 | 169000 | 13.6 | 1.32 | 0.000155 | 117000 | 15.2 |
